From the supplement of paper PMC10724198

How the values were obtained:
Saccharomyces cerevisiae [1] = test: protein stability index of tFT-peptide fusion in wild type (PSI (0-1 scale)); higher = more stable (slower turnover); conditions: genetic background: wild type
Saccharomyces cerevisiae [2] = test: protein stability index of tFT-peptide fusion in deletion strain of DOA10 (PSI (0-1 scale)); higher = more stable (slower turnover)
Description: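 MPS profiling in S. cerevisiae of two library types built from selected 12-aa C-degron peptides (IN1, IN2, LN1, LN3, VN2, R1-R5, W1-W3, Atg1 and Rpa12 C-termini): saturation mutagenesis libraries and C-terminal +1 capping libraries (13 aa). Each peptide is fused to the C-terminus of a sfGFP-mCherry timer, after a GGGS linker. Cells are FACS-sorted into 8 mCherry/sfGFP bins and sequenced. PSI runs from 0 (unstable) to 1 (stable), measured once in wild type and in the das1Δ or doa10Δ background.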
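Throughout, for protein stability index of tFT-peptide fusion in deletion strain of DOA10: PSI per variant is the weighted mean of its sequencing read distribution over the sorted stability bins, counting only variants with over 10 reads summed across bins.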
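Throughout, for protein stability index of tFT-peptide fusion in wild type: PSI derived as read-weighted mean over the 8 sorting bins, only variants exceeding 10 total reads kept, mCherry placed adjacent to the peptide and sfGFP distal.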

| Sequence | protein stability index (Saccharomyces cerevisiae [1]) | protein stability index (Saccharomyces cerevisiae [2]) |
| --- | --- | --- |
| RVTRLDAIYFRIE | 0.627 | 0.689 |
| RVTRLDGIYFRI | 0.389 | 0.567 |
| AITLPMCPLLLP | 0.627 | 0.675 |
| AITLTMCPLLLR | 0.386 | 0.667 |
| RVFRLDAIYFRI | 0.319 | 0.619 |
| AKTLPMCPLLLR | 0.352 | 0.672 |
| NSLRVLLPLYFR | 0.357 | 0.662 |
| GEYMCSVGCWFR | 0.425 | 0.667 |
| GLGMCSVGCWFR | 0.336 | 0.674 |
| RSDRVLLPLYFR | 0.352 | 0.696 |
| RSLRVLLPCYFR | 0.409 | 0.647 |
| RVTRWDAIYFRI | 0.165 | 0.368 |
| WVTRLDAIYFRI | 0.161 | 0.62 |
| HITLPMCPLLLR | 0.332 | 0.657 |
| ELYMCSVGCWFR | 0.388 | 0.651 |
| CLVSLGILLFFR | 0.276 | 0.436 |
| CLVSLPLLLFFR | 0.0578 | 0.606 |
| AITLPMCPNLLR | 0.645 | 0.672 |
| CLVSLPILLFLR | 0.0512 | 0.564 |
| RSLRVLLPKYFR | 0.646 | 0.676 |
